According to PMC3788737, “Structural Insights into Neutrophilic Migration Revealed by the Crystal Structure of the Chemokine Receptor CXCR2 in Complex with the First PDZ Domain of NHERF1” (PLoS ONE, 2013):

Key:
[1] = target: T1, NHERF1 PDZ1 domain (residues 11-94) (human, UniProt O14745 11-94); experiment: crystal structure; chimeric PDZ1(11-94)-TSTTL, hanging drop, 100 mM sodium acetate pH 4.6, 2.7 M sodium chloride, 20 °C; 1.16 Å; the tail of one molecule binds the neighbouring PDZ1; details: both partners purified
T1 construct: Na+/H+ exchanger regulatory factor-1 (NHERF1), human, PDZ1 domain, residues 11-94; The PDZ1 part of the chimera m1, written on its own for the pair PDZ1 and CXCR2 peptide of the crystal structure; also called first PDZ domain of NHERF1; source: E. coli BL21 Codon Plus (DE3), purified, as part of the chimeric protein PDZ1-TSTTL; not shown: His6, N-terminal, cleaved; SUMO, N-terminal, cleaved
T1 sequence (looked up): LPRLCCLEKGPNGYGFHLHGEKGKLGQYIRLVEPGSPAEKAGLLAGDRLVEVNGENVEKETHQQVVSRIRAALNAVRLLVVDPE

[2] = target: the molecule itself; experiment: as above

B1: CXCR2 C-terminal peptide TSTTL (residues 356-360) (peptide)
peptide: TSTTL
notes: Interleukin 8 receptor, beta (CXCR2), human, residues 356-360 (C-terminus); The CXCR2 part of the chimera m1 (joined to residue 94 of PDZ1), written on its own for the pair of the crystal structure; also called CXCR2 pentapeptide; source: E. coli BL21 Codon Plus (DE3), purified, as the C-terminal extension of the chimeric protein PDZ1-TSTTL
binding result [1]: binds

B2: chimeric protein of the NHERF1 PDZ1 domain (residues 11-94) fused at its C-terminus to the CXCR2 residues 356-360 (TSTTL) (other, human)
chain: LPRLCCLEKGPNGYGFHLHGEKGKLGQYIRLVEPGSPAEKAGLLAGDRLVEVNGENVEKETHQQVVSRIRAALNAVRLLVVDPETSTTL
notes: Na+/H+ exchanger regulatory factor-1 (NHERF1), human, PDZ1 domain, residues 11-94; C-terminal extension that corresponds to residues 356-360 of human CXCR2; one molecule in the asymmetric unit; also called PDZ1-CXCR2; not shown: His6, N-terminal, cleaved; SUMO, N-terminal, cleaved
binding result [2]: binds
